This is an account of results in US20230201364A1 (BRIGHT PEAK THERAPEUTICS, published 2023).

As a reminder, the Kd is a measure of binding affinity in units of concentration.

Experiment [1] has as its target T1, recombinant biotinylated human Fc gamma receptor I (FcγRI/CD64) (human, UniProt P12314 16-288, limits assumed, biotinylated).
T1 construct: also called FcgRI
The experiment is described as follows: AlphaLISA competition: test antibody titrated against biotinylated human FcγRI; competitor: human IgG Fc on acceptor beads; signal normalized to %; panel 'FcγR1/CD64 Binding Assay'. How it is done:
(§1) The interaction of the unmodified and of conjugated antibodies with human Fc gamma receptors I (FcγRI/CD64), with human Fc gamma receptors II (FcγRIIa/CD32), and with low affinity human Fc gamma receptors III FcγR3a/CD16 V158 were measured using the AlphaLISA® Human FcγR1/CD64 (AL3081C), FcγRIIa/CD32a 167H (AL3086C), and FcγRIII/CD16 176P/F158 (AL3471HV) binding Kits respectively (Perkin Elmer, Schwerzenbach, Switzerland).
(§2) After 90 min at 23° C. in the dark, AlphaLISA® signal was measured on an EnSpire plate reader (Excitation at 680 nm, Emission at 615 nm) from Perkin Elmer (Schwerzenbach, Switzerland).

Experiment [2] concerns the target T2, recombinant biotinylated human Fc gamma receptor IIIa (FcγRIIIa/CD16) (human, UniProt P08637 17-208, limits assumed, biotinylated).
T2 construct: Allotype given inconsistently (V158 against 176P/F158); also called FcgRIIIa; FcγR3a
Description: AlphaLISA competition: test antibody titrated against biotinylated human FcγRIIIa; competitor: human IgG Fc on acceptor beads; signal normalized to %; panel 'FcγR3a/CD16 Binding Assay'. How it is done:
as §1, §2

For experiment [3], the target named is T3, recombinant biotinylated human Fc gamma receptor IIa (FcγRIIa/CD32a 167H) (human, UniProt P12318 36-218, limits assumed, biotinylated).
T3 construct: also called FcgRIIa
T3 sequence (looked up): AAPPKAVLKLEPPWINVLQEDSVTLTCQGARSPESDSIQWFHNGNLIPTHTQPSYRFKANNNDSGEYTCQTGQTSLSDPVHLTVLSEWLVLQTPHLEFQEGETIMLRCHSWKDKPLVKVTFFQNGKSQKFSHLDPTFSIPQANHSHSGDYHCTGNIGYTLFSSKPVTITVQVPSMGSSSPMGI
The experiment is described as follows: AlphaLISA competition: test antibody titrated against biotinylated human FcγRIIa; competitor: human IgG Fc on acceptor beads; signal normalized to %; panel 'FcγR2a/CD32a Binding Assay'. On the procedure:
as §1, §2

Experiment [4] has as its target T4, Fc gamma receptor IIb (FcgRIIb, CD32b) (human, UniProt P31994 46-217, limits assumed).
T4 construct: the kit is not described; also called FcRIIb
T4 sequence (looked up): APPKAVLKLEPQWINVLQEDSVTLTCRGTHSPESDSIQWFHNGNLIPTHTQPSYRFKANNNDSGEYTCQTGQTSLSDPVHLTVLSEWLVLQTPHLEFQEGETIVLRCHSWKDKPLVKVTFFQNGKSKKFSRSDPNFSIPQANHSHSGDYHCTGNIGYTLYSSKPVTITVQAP
Description: AlphaLISA competition or analogous assay for FcγRIIb (not described).

For a further experiment, the target named is T5, CD20 (human, UniProt P11836 1-297, limits assumed).
T5 construct: The CD20 reagent of the ELISA is not described (analogous methods); also called human CD20
T5 sequence: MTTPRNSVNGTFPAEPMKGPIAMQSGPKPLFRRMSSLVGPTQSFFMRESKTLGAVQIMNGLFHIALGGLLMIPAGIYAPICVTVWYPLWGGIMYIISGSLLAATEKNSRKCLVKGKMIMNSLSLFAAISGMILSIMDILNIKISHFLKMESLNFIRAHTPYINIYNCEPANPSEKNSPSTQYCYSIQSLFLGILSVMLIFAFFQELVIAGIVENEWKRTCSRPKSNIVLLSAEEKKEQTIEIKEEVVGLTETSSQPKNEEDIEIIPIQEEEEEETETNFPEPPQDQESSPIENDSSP
The experiment is described as follows: ELISA by a method analogous to the PD-1 ELISA; antigen reagent not described. In general terms: ELISA stands for enzyme-linked immunosorbent assay.

Experiment [5] deals with T1, recombinant biotinylated human Fc gamma …. Description: AlphaLISA competition; test molecule titrated against human IgG Fc acceptor beads for biotinylated FcγRI. On the procedure: as §1, §2
Background: In Alpha technology, singlet oxygen from a donor bead excites a nearby acceptor bead.

For experiment [6], the target named is T3, recombinant biotinylated human Fc gamma …. Description: AlphaLISA competition; test molecule titrated against human IgG Fc acceptor beads for biotinylated FcγRIIa. On the procedure: as §1, §2
In experiment [7] the target is T2, recombinant biotinylated human Fc gamma …. The experiment is described as follows: AlphaLISA competition; test molecule titrated against human IgG Fc acceptor beads for biotinylated FcγRIIIa. On the procedure: as §1, §2
Experiment [8] addresses T6, recombinant biotinylated human neonatal Fc receptor (FcRn) (human, UniProt P55899 24-297; P61769 21-119, limits assumed, biotinylated).
T6 construct: also called human FcRn
Description: AlphaLISA competition at pH 6; test molecule titrated against human IgG acceptor beads for biotinylated human FcRn. On the procedure:
(§3) The interaction of the unmodified and of conjugated anti-PD1 antibodies with the human neonatal Fc receptor (FcRn) at pH 6 was measured using the AlphaLISA Human FcRn Binding Kit (AL3095C) from Perkin Elmer (Schwerzenbach, Switzerland).
(§4) After 90 min at 23° C. in the dark, AlphaLISA signal was measured on an EnSpire plate reader (Excitation at 680 nm, Emission at 615 nm) from Perkin Elmer (Schwerzenbach, Switzerland).

The target in experiment [9] is recombinant biotinylated PD1/CD279 protein (AcroBiosystems PD1-H82E4) (UniProt Q15116 25-167, biotinylated). The experiment is described as follows: ELISA; antibody coated on plate, biotinylated antigen titrated, streptavidin-HRP. How it is done:
The interaction of the unmodified and of conjugated antibodies their antigens were measured by ELISA assay.
For these PD-1 ELISAs, Corning high-binding half-area plates (Fisher Scientific, Reinach, Switzerland) were coated overnight at 4° C. with 25 μl of unmodified and of conjugated anti-PD1 antibodies at 5 μg/ml in PBS. Plates were then washed four times with 100 μl of PBS-0.02% Tween20. Plates surfaces were blocked with 25 μl of PBS-0.02% Tween20-1% BSA at 37° C. during 1 h. Plates were then washed four times with 100 μl of PBS-0.02% Tween20. […] Fifty microliters of TMB substrate reagent (#CL07, Merck, Buchs, Switzerland) were added to each well and incubated at 37° C. during 5 min. After 5 min at 37° C., Horseradish peroxidase reaction was stopped by adding 50 μl/well of 0.5M H₂SO₄ stop solution. ELISA signal was then measured at 450 nm on an EnSpire plate reader from Perkin Elmer (Schwerzenbach, Switzerland). ELISAs for other antibody/antigen pairs were performed using analogous methods.

Experiment [10] deals with T6, recombinant biotinylated human neonatal …. Description: AlphaLISA competition at pH 6: test antibody titrated against biotinylated human FcRn on donor beads; competitor: human IgG on acceptor beads. On the procedure: as §3, §4
The target in experiment [11] is T1, recombinant biotinylated human Fc gamma …. Description: AlphaLISA competition: test antibody titrated against biotinylated human FcγRI on donor beads; competitor: human IgG Fc on acceptor beads; signal normalized to %. How it is done: as §1, §2

B1: CMP-033 (Durvalumab) (antibody, human IgG1, kappa)
heavy chain: EVQLVESGGGLVQPGGSLRLSCAASGFTFSRYWMSWVRQAPGKGLEWVANIKQDGSEKYYVDSVKGRFTISRDNAKNSLYLQMNSLRAEDTAVYYCAREGGWFGELAFDYWGQGTLVTVSSASTKGPSVFPLAPSSKSTSGGTAALGCLVKDYFPEPVTVSWNSGALTSGVHTFPAVLQSSGLYSLSSVVTVPSSSLGTQTYICNVNHKPSNTKVDKRVEPKSCDKTHTCPPCPAPEFEGGPSVFLFPPKPKDTLMISRTPEVTCVVVDVSHEDPEVKFNWYVDGVEVHNAKTKPREEQYNSTYRVVSVLTVLHQDWLNGKEYKCKVSNKALPASIEKTISKAKGQPREPQVYTLPPSREEMTKNQVSLTCLVKGFYPSDIAVEWESNGQPENNYKTTPPVLDSDGSFFLYSKLTVDKSRWQQGNVFSCSVMHEALHNHYTQKSLSLSPGK
light chain: EIVLTQSPGTLSLSPGERATLSCRASQRVSSSYLAWYQQKPGQAPRLLIYDASSRATGIPDRFSGSGSGTDFTLTISRLEPEDFAVYYCQQYGSLPWTFGQGTKVEIKRTVAAPSVFIFPPSDEQLKSGTASVVCLLNNFYPREAKVQWKVDNALQSGNSQESVTEQDSKDSTYSLSSTLTLSKADYEKHKVYACEVTHQGLSSPVTKSFNRGEC
notes: unconjugated parent anti-PD-L1 antibody; also called Imfinzi; MEDI-4736
In the case of B1, the binding result in experiment [1] is “binds”. For the same molecule, the “IC50 (read off the curve)” value in [2] was approximately 500 nM; in experiment [3], approximately 400 nM.

B2: CMP-032 (biosimilar Rituximab) (antibody, human IgG1, kappa)
heavy: not shown
light: QIVLSQSPAILSASPGEKVTMTCRASSSVSYIHWFQQKPGSSPKPWIYATSNLASGVPVRFSGSGSGTSYSLTISRVEAEDAATYYCQQWTSNPPTFGGGTKLEIKRTVAAPSVFIFPPSDEQLKSGTASVVCLLNNFYPREAKVQWKVDNALQSGNSQESVTEQDSKDSTYSLSSTLTLSKADYEKHKVYACEVTHQGLSSPVTKSFNRGEC
notes: Unconjugated parent anti-CD20 antibody (DAR 0); A biosimilar/generic rituximab was tested; also called generic rituximab
Regarding B2, the Kd in experiment [4] was determined as 880 nM; in the experiment with CD20 it was 0.076 nM; in [5] it was 0.233 nM; in experiment [6], 740 nM; in experiment [7], 133 nM; in experiment [8], 4.03 nM.

B3: CMP-105 (LZM-009) (antibody, V domains shown)
VH: QVQLVQSGAEVKKPGASVKVSCKASGYTFTSYYMYWVRQAPGQGLEWMGGVNPSNGGTNFNEKFKSRVTITADKSTSTAYMELSSLRSEDTAVYYCARRDYRYDMGFDYWGQGTTVTVSS
VL: EIVLTQSPATLSLSPGERATISCRASKGVSTSGYSYLHWYQQKPGQAPRLLIYLASYLESGVPARFSGSGSGTDFTLTISSLEPEDFATYYCQHSRELPLTFGTGTKVEIK
notes: Unconjugated parent anti-PD-1 antibody (DAR 0); also called Livzon PD1 AB
Take B3: the Kd in experiment [9] is 0.035 nM.

B4: CMP-102 (LZM-009 conjugated to CMP-003, DAR 1, K288) (antibody)
VH: B3 VH
VL: B3 VL
chain: APTSSSTKKTQLQLEHLLLDLQXILNGINNYKNPKLTRXLXYKFYXPKKATELKHLQCLEEELKPLEEVLXLAQSKNFHLRPRDLISNINVIVLELKGSETTFXCEYADETATIVEFLNRWITFSQSIISTLT
modifications: not fully specified; Nle at 23, 39, 46 and Hse at 41, 71, 104 (as in SEQ ID NO: 3); ~0.5 kDa PEG on Y45; 0.5 kDa PEG on F42Y whose azide end is joined to the DBCO linker of the antibody; the heavy chain carries a chemical linker to CMP-003 on Lys K288 (Eu numbering) of the Fc; DAR 1
For the molecule B4, the Kd in experiment [9] was 0.027 nM.

B5: CMP-016 (LZM-009 conjugated to CMP-003, DAR 1, K248) (antibody)
VH: B3 VH
VL: B3 VL
chain: B4 chain
modifications: not fully specified; Nle at 23, 39, 46 and Hse at 41, 71, 104 (as in SEQ ID NO: 3); ~0.5 kDa PEG on Y45; 0.5 kDa PEG on F42Y whose azide end is joined to the DBCO linker of the antibody; the heavy chain carries a chemical linker to CMP-003 on Lys K248 (Eu numbering) of the Fc; DAR 1
Regarding B5, in [9], the Kd amounted to 0.037 nM.

B6: CMP-028 (LZM-009 conjugated to CMP-003, DAR 1.9, K288) (antibody)
VH: B3 VH
VL: B3 VL
chain: B4 chain
modifications: not fully specified; Nle at 23, 39, 46 and Hse at 41, 71, 104 (as in SEQ ID NO: 3); ~0.5 kDa PEG on Y45; 0.5 kDa PEG on F42Y whose azide end is joined to the DBCO linker of the antibody; the heavy chain carries a chemical linker to CMP-003 on Lys K288 (Eu numbering) of the Fc; DAR 1.9
As to B6, in [9], the Kd came out at 0.041 nM.

B7: CMP-041 (LZM-009 conjugated to CMP-095 (IL-7), DAR 1, K248) (antibody)
VH: B3 VH
VL: B3 VL
chain: DCDIEGKDGKQYESVLXVSIDQLLDSXKEIGSNCLXNEFNFFKRHICDANKEGXFLFRAARKLRQFLKXNSTGDFXLHLLKVSEGTTILLNCTGQVKGRKPAALGEAQPTKSLXENKSLKEQKKLNDLCFLKRLLQEIKTCWNKILXGTKEH
modifications: not fully specified; Nle at 17, 27, 54, 69, 147 and Hse at 36, 76, 114 (as in SEQ ID NO: 187); N-terminal amine carries glutaryl-PEG9 whose azide end is joined to the DBCO linker of the antibody; the heavy chain carries a chemical linker to CMP-095 on Lys K248 (Eu numbering) of the Fc; DAR 1
notes: also called Livzon PD1:IL7wt
For B7, the Kd in [9] stood at 0.035 nM.

B8: CMP-004 (Pembrolizumab) (antibody, human IgG4 S228P, kappa)
heavy: not shown
light: EIVLTQSPATLSLSPGERATLSCRASKGVSTSGYSYLHWYQQKPGQAPRLLIYLASYLESGVPARFSGSGSGTDFTLTISSLEPEDFAVYYCQHSRDLPLTFGGGTKVEIKRTVAAPSVFIFPPSDEQLKSGTASVVCLLNNFYPREAKVQWKVDNALQSGNSQESVTEQDSKDSTYSLSSTLTLSKADYEKHKVYACEVTHQGLSSPVTKSFNRGEC
notes: Unconjugated parent anti-PD-1 antibody (DAR 0); also called Lambrolizumab
With B8, the Kd was 0.488 nM in [5], 289 nM in [7] and 7.31 nM in [8]. The “IC50 (read off the curve)” value was approximately 10 nM in experiment [10] and approximately 0.5 nM in experiment [11].
